According to the supplement of paper PMC10126150:
± gives the standard deviation of the averaged measurements.

Tested on: ATP
Experiment: switch fluorescence ratio, 500 uM ATP over buffer (Cy3 cluster intensity, sum of 5 cycles each) (fold (ratio)); higher = stronger signal-on switching upon ATP binding; sequences stand for … in TCGTCGGCAGCGTCAGATGTGTATAAGAGACAGTTTTTTTTTTTTTTTTTTTTTTTTT…TC
Conditions: aptamer strand: ATP DNA aptamer (quencher-CACCTGGGGGAGTATTGCGGAGGAAGG + anchor), 100 nM annealed; ATP concentration: 500 uM
Procedure, shortened: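 Five buffer/ATP imaging cycles were run on Cy3-labelled switching-strand clusters on a modified Illumina MiSeq flow-cell, with NaOH stripping and re-annealing between cycles. In each cycle, clusters annealed to 100 nM quencher-labelled ATP aptamer were imaged in selection buffer, then after 15 min with 500 uM ATP at 22 °C. Per cluster, the fluorescence ratio is summed target-cycle over summed buffer-cycle Cy3 intensity, averaged per switch-domain sequence. Only clusters within 100-1000 RFU were kept.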
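Also: ATP exposure 15 min at 22 °C before imaging.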

Sequence	switch fluorescence ratio
CTTTAACGTG	0.9718 ± 0.004
TTGGGTTTCT	0.97996 ± 0.00043
GCAAAACGTA	1.012 ± 0.009
TTGATAGGCC	0.9998 ± 0.0049
TGCAGGTTAC	1.12 ± 0.015
TTTGTCTGGA	0.991 ± 0.032
CTAAGGGGTT	0.991 ± 0.036
ATTTATGGGG	1 ± 0.032
AGAGGTTACG	0.994 ± 0.046
TTCGGGTATT	1.1 ± 0.2
CGCGGGGTAC	1.66 ± 0.26
TGATGTCCGT	0.997 ± 0.02
ACGCGGCGGG	0.977 ± 0.036
CTTAGAAAGC	1.05 ± 0.022
TTTCTAGGTC	1.015 ± 0.0048
GCTAGTAAAA	1.02 ± 0.029
GTGTTTAAA	0.962 ± 0.014
GCGGTTTCGG	0.994 ± 0.024
ACAGTAGTAG	1.07 ± 0.026
TTTTAAGAAT	1.005 ± 0.0078
ATTTTGGCGA	1.02 ± 0.029
GAGGTGAGTG	0.9921 ± 0.0066
GATATATTGC	1.03 ± 0.012
GGCACTATAA	1.03 ± 0.023
GGTGTGCATC	1 ± 0.018
ACCTGATATA	1.03 ± 0.021

Sequence	switch fluorescence ratio
CTCTTTTGGG	0.9652 ± 0.0019
TAAAAGGATT	0.989 ± 0.042
GGGCGCCATA	0.948 ± 0.015
ATTGTTTATT	0.998 ± 0.012
CGTGCGGGTT	0.993 ± 0.047
TGCACGGGGG	1.03 ± 0.013
TTGACCTGAG	1.08 ± 0.013
GGGCAGCCTT	0.99337 ± 0.0002
AGTTTGAGTA	1.01 ± 0.027
ATGTAGCATG	1.036 ± 0.0041
GAATCAGCGG	0.989 ± 0.018
TCTGGGTGAA	1.03 ± 0.081
GTAATTCAGA	0.99 ± 0.037
AACTATGCCT	1.03 ± 0.037
CGGTAGGATC	0.995 ± 0.03
GCGTCGGGGA	1 ± 0.047
CTAATTTGGT	1.01 ± 0.016
TCGAGATAGC	1.03 ± 0.011
TTTCGGGCGC	1.05 ± 0.047
GTTTTTAATG	0.969 ± 0.011
ATTTCTAGGG	1.027 ± 0.0041
TCATCCCGGG	1.052 ± 0.0077
CGATCTTGTT	0.982 ± 0.018
GAGAGGGGGA	0.97 ± 0.036
GACCGATGTG	1.01 ± 0.013
GCTCGATGTG	1 ± 0.015

Sequence	switch fluorescence ratio
ACCCAGAAGG	1.08 ± 0.043
AACCAGGGGG	1.058 ± 0.0084
CCGCGTACGG	2.03 ± 0.22
TATGTGTGAC	1.03 ± 0.021
TGTTCCGGGG	1.013 ± 0.0063
AAGGTATGTG	1.025 ± 0.0038
TGGGCGATAT	1.95 ± 1.1
TACCGTGGGT	0.99 ± 0.021
GCCATTTTGG	0.993 ± 0.013
TAAGCTAAGG	1.04 ± 0.016
GCTGGTGGGT	0.988 ± 0.012
TTTGATACTG	1.06 ± 0.11
GGTTTTTTTC	1.02 ± 0.048
TGGGAACTCT	0.994 ± 0.012
CTTTGGGGCG	1.01 ± 0.044
TAATATTCAA	1.03 ± 0.014
TGTGTTAGTA	0.9602 ± 0.0053
GGAAGATACG	1.03 ± 0.015
TGGGTATGTT	1.02 ± 0.014
TTACATGATG	1.01 ± 0.013
TTTCGCCATG	0.995 ± 0.026
ACTGCGTGAT	1.05 ± 0.022
GGGGAAGTAT	0.985 ± 0.014
TACGGTCAGC	1.03 ± 0.016
GTGGGGGCGC	1.04 ± 0.022
